{"source": "paper PMC4882581", "about": "“Characterisation of assembly and ubiquitylation by the RBCC motif of Trim5α” (Scientific Reports, 2016)", "proteins": {"B1": {"name": "RhT5 1–261dCC (RhT5 1–261Δ155–228), wild type (domain or fragment, Rhesus macaque)", "chain": "MASGILLNVKEEVTCPICLELLTEPLSLHCGHSFCQACITANHKKSMLYKEGERSCPVCRISYQPENIQPNRHVANIVEKLREVKLSPEEGQKVDHCARHGEKLLLFCQEDSKVICWLCERSQEHRGHHTFLMEEVAQEYHVKLQTALEMLRQKGGDPYMRELISELEHRLQGSMMDLLQGVDGIIKRIEN", "notes": "Trim5α, Rhesus macaque, RING, L1, Bbox and start of the coiled-coil, residues 1–154; In a monomer-trimer equilibrium (trimer mass printed 67.8 kDa); also called Wt; source: expressed in LB broth with IPTG; purified (amylose resin, on column 3C protease cleavage, anion exchange); not shown: MBP, C-terminal, cleaved"}, "B2": {"name": "RhT5 94–141 (Trim5α Bbox domain alone, residues 94–141) (domain or fragment, Rhesus macaque, UniProt Q0PF16 94-141, looked up)", "chain": "VDHCARHGEKLLLFCQEDSKVICWLCERSQEHRGHHTFLMEEVAQEYH", "notes": "Trim5α, Rhesus macaque, Bbox domain, residues 94–141; Cloned into pET47b (N-terminal His-tag) or pET49b (N-terminal GST-tag); purified by IMAC, so the His-tag vector is surmised; also called RhT5α 94–141; Bbox only construct; source: E. coli BL21(DE3), purified (IMAC, 3C cleavage, anion exchange, SEC); not shown: His-tag, N-terminal, cleaved"}, "B3": {"name": "RhT5 88–261dCC (wild type) (domain or fragment, Rhesus macaque)", "chain": "PEEGQKVDHCARHGEKLLLFCQEDSKVICWLCERSQEHRGHHTFLMEEVAQEYHVKLQTALEMLRQKGGDPYMRELISELEHRLQGSMMDLLQGVDGIIKRIEN", "notes": "Trim5α, Rhesus macaque, Bbox-CC, residues Pro88-Lys154; Trim5α, Rhesus macaque, CC-L2, residues Tyr229-Asn261; In a monomer-trimer equilibrium; Vector pET47b or pET49b; IMAC purification, so the His-tag is surmised; also called RhT5 88–216dCC (as printed once); source: E. coli BL21(DE3), purified (IMAC, 3C cleavage, anion exchange, SEC); not shown: His-tag, N-terminal, cleaved"}}, "key": {"[1]": {"target": "the molecule itself", "test": "AUC; sedimentation velocity, c(S) analysis, and isotherm of the weight-averaged S fit to a monomer-trimer model (monomer to trimer, RhT5 1–261dCC); 20 °C; 10 mM Tris/HCl pH 7.8, 150 mM NaCl; 50 krpm (RhT5 94–141, RhT5 88–261dCC) or 38 krpm (RhT5 1–261dCC)"}, "[2]": {"target": "the molecule itself", "test": "AUC; multi-speed sedimentation equilibrium; monomer to trimer; three concentrations (0.125, 0.25, 0.5 mg/ml); 14,000, 18,000 and 22,000 rpm; 20 °C; 10 mM Tris/HCl pH 7.8, 150 mM NaCl; fit in SEDPHAT"}}, "data": [{"protein": "B1", "values": [{"measurement": "stoichiometry N", "setting": "[1]", "result": 3}]}, {"protein": "B2", "values": [{"measurement": "stoichiometry N", "setting": "[1]", "result": 2}]}, {"protein": "B3", "values": [{"measurement": "stoichiometry N", "setting": "[2]", "result": 3}]}]}
